# Numbering of substitutions follows the chain as printed. Names and notes keep the numbering of the source.
# B1: A3A-184A (K334N/P352S/A378V/V397M) Fc fragment (other)
# chain: DKTHTCPPCPAPELLGGPSVFLFPPKPKDTLMISRTPEVTCVVVDVSHEDPEVKFNWYVDGVEVHNAKTKPREEQYNSTYRVVSVLTVLHQDWLNGKEYKCKVSNKALPAPIENTISKAKGQPREPQVYTLSPSRDELTKNQVSLTCLVKGFYPSDIVVEWESNGQPENNYKTTPPMLDSDGSFFLYSKLTVDKSRWQQGNVFSCSVMHEALHNHYTQKSLSLSPGK
# B2: T5A-74J (E258I/N315D/A330V/N361D/A378V/N434Y) Fc fragment (other)
# chain: B1 chain with E38I, N95D, A110V, N114K, S132P, N141D, M177V, N214Y
# B3: T5A-74I (T260A/N315D/A330V/N361D/A378V/N434Y) Fc fragment (other)
# chain: B1 chain with T40A, N95D, A110V, N114K, S132P, N141D, M177V, N214Y
# B4: T5A-74K (K290Y/N315D/A330V/N361D/A378V/N434Y) Fc fragment (other)
# chain: B1 chain with K70Y, N95D, A110V, N114K, S132P, N141D, M177V, N214Y
# B5: A3A-105D (G316D/K326E/A378V) Fc fragment (other)
# chain: B1 chain with G96D, K106E, N114K, S132P, M177V
# B6: T5A-74M (Y296W/N315D/A330V/N361D/A378V/N434Y) Fc fragment (other)
# chain: B1 chain with Y76W, N95D, A110V, N114K, S132P, N141D, M177V, N214Y
# B7: T5A-74L (E294A/N315D/A330V/N361D/A378V/N434Y) Fc fragment (other)
# chain: B1 chain with E74A, N95D, A110V, N114K, S132P, N141D, M177V, N214Y
# B8: J3B-118A (A378V/P396L/N421T) Fc fragment (other)
# chain: B1 chain with N114K, S132P, P176L, M177V, N201T
# Target: Recombinant human FcRn (FcRn alpha and beta2-microglobulin) (human, UniProt P55899 24-290; P61769 21-119)
# Assay: SPR; produced in HEK
row,Kd,Binder
1,11.7 nM,B1
2,30.2 nM,B2
3,32.5 nM,B3
4,16.6 nM,B4
5,231 nM,B5
6,27.3 nM,B6
7,37.9 nM,B7

# Target: Recombinant human CD16aV (V polymorphism at position 158 of CD16) (human, UniProt P08637 17-208)
# Assay: SPR; produced in HEK
# Recombinant human CD16aV (V polymorphism at position 158 of CD16), sequence (P08637 17-208 F176V): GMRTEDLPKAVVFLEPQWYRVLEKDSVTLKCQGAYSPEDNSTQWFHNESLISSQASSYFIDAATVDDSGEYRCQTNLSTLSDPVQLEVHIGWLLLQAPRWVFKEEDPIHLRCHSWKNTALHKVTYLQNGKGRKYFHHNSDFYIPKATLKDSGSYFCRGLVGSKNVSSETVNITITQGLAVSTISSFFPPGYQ
row,Kd,Binder
1,228 nM,B1
2,2820 nM,B2
3,3510 nM,B3
4,1840 nM,B8
5,3180 nM,B4
6,1210 nM,B5
7,308 nM,B6
8,4400 nM,B7
